Substitutions are numbered along the chain they refer to. Numbers in names are those of the source. Where “and” joins values, the source holds several entries; their conditions need not be identical. Equal entries are not always repeated.
B1: FIXa-R318Y/T343R/E410N (activated Factor IX variant, mature FIX numbering) (protein)
chain 1: YNSGKLEEFVQGNLERECMEEKCSFEEAREVFENTERTTEFWKQYVDGDQCESNPCLNGGSCKDDINSYECWCPFGFEGKNCELDVTCNIKNGRCEQFCKNSADNKVVCSCTEGYRLAENQKSCEPAVPFPCGRVSVSQTSKLTR
chain 2: VVGGEDAKPGQFPWQVVLNGKVDAFCGGSIVNEKWIVTAAHCVETGVKITVVAGEHNIEETEHTEQKRNVIRIIPHHNYNAAINKYNHDIALLELDEPLVLNSYVTPICIADKEYTNIFLKFGSGYVSGWGRVFHKGYSALVLQYLRVPLVDRATCLRSTKFRIYNNMFCAGFHEGGRDSCQGDSGGPHVTEVEGTSFLTGIISWGEECAMKGKYGIYTKVSRYVNWIKNKTKLT
B2: FIXa variant R318Y/R338E/T343R/R403E/E410N (mature FIX numbering) (protein)
chain 1: B1 chain 1
chain 2: B1 chain 2 with R158E, R223E
B3: FIXa-D203N/F205T/R338E/R403E (protein)
chain 1: B1 chain 1
chain 2: B1 chain 2 with D23N, F25T, Y138R, R158E, R163T, R223E, N230E
B4: FIXa-K228N/R338E/R403E (protein)
chain 1: B1 chain 1
chain 2: B1 chain 2 with K48N, Y138R, R158E, R163T, R223E, N230E
B5: FIXa-D203N/F205T/K228N (protein)
chain 1: B1 chain 1
chain 2: B1 chain 2 with D23N, F25T, K48N, Y138R, R163T, N230E
B6: FIXa-K228N/R318Y/E410N (protein)
chain 1: B1 chain 1
chain 2: B1 chain 2 with K48N, R163T
B7: FIXa-Y155F/N260S/R318Y/R338E/R403E/E410N (protein)
chain 1: B1 chain 1
chain 2: B1 chain 2 with N80S, R158E, R163T, R223E
B8: FIXa variant R318Y/R338E/T343R/N346D/R403E/E410N (mature FIX numbering) (protein)
chain 1: B1 chain 1
chain 2: B1 chain 2 with R158E, N166D, R223E
B9: FIXa variant R318Y/R338E/Y345A/N346D/R403E/E410N (mature FIX numbering) (protein)
chain 1: B1 chain 1
chain 2: B1 chain 2 with R158E, R163T, Y165A, N166D, R223E
B10: FIXa-Y155F/R318Y/R338E/E410N (protein)
chain 1: B1 chain 1
chain 2: B1 chain 2 with R158E, R163T
B11: FIXa-K228N/R318Y/R338E/T343R/R403E/E410N (activated Factor IX variant, mature FIX numbering) (protein)
chain 1: B1 chain 1
chain 2: B1 chain 2 with K48N, R158E, R223E
B12: FIXa variant R318Y/R338E/T343R/N346Y/R403E/E410N (mature FIX numbering) (protein)
chain 1: B1 chain 1
chain 2: B1 chain 2 with R158E, N166Y, R223E
B13: FIXa-R318Y/R338E/T412A (protein)
chain 1: B1 chain 1
chain 2: B1 chain 2 with R158E, R163T, N230E, T232A
B14: FIXa-D104N/K106S/R318Y/R338E/E410N (protein)
chain 1: B1 chain 1 with D104N, K106S
chain 2: B1 chain 2 with R158E, R163T
B15: FIXa-D203N/F205T/R318Y (protein)
chain 1: B1 chain 1
chain 2: B1 chain 2 with D23N, F25T, R163T, N230E
B16: FIXa-R318Y/R338E/E410N (protein)
chain 1: B1 chain 1
chain 2: B1 chain 2 with R158E, R163T
B17: FIXa variant R318Y/R338E/Y345A/R403E/E410N (mature FIX numbering) (protein)
chain 1: B1 chain 1
chain 2: B1 chain 2 with R158E, R163T, Y165A, R223E
B18: FIXa-R338E/R403E/E410N (protein)
chain 1: B1 chain 1
chain 2: B1 chain 2 with Y138R, R158E, R163T, R223E
B19: FIXa-K228N/K247N/N249S/R318Y/R338E/T343R/E410N (activated Factor IX variant, mature FIX numbering) (protein)
chain 1: B1 chain 1
chain 2: B1 chain 2 with K48N, K67N, N69S, R158E
B20: FIXa-R318Y/R338E/R403E/E410N (protein)
chain 1: B1 chain 1
chain 2: B1 chain 2 with R158E, R163T, R223E
B21: FIXa-D203N/F205T/E410N (protein)
chain 1: B1 chain 1
chain 2: B1 chain 2 with D23N, F25T, Y138R, R163T
B22: FIXa-D203N/F205T/R338A (protein)
chain 1: B1 chain 1
chain 2: B1 chain 2 with D23N, F25T, Y138R, R158A, R163T, N230E
B23: FIXa-R318Y/R403E/E410N (protein)
chain 1: B1 chain 1
chain 2: B1 chain 2 with R163T, R223E
B24: FIXa-D203N/F205T/R338E (protein)
chain 1: B1 chain 1
chain 2: B1 chain 2 with D23N, F25T, Y138R, R158E, R163T, N230E
B25: FIXa-K228N/K247N/N249S/R318Y/R338E/T343R/R403E (activated Factor IX variant, mature FIX numbering) (protein)
chain 1: B1 chain 1
chain 2: B1 chain 2 with K48N, K67N, N69S, R158E, R223E, N230E
B26: FIXa-K228N/K247N/N249S/R318Y/T343R/R403E/E410N (activated Factor IX variant, mature FIX numbering) (protein)
chain 1: B1 chain 1
chain 2: B1 chain 2 with K48N, K67N, N69S, R223E
B27: FIXa variant R318Y/R338E/N346Y/R403E/E410N (mature FIX numbering) (protein)
chain 1: B1 chain 1
chain 2: B1 chain 2 with R158E, R163T, N166Y, R223E

Columns and labels:
[1] = molecular target: Factor X (FX) zymogen, active site titrated and DFP/EGR-cmk treated, P00742
Sequence of Factor X (FX) zymogen, active site titrated and DFP/EGR-cmk treated, P00742 (P00742 whole entry, looked up): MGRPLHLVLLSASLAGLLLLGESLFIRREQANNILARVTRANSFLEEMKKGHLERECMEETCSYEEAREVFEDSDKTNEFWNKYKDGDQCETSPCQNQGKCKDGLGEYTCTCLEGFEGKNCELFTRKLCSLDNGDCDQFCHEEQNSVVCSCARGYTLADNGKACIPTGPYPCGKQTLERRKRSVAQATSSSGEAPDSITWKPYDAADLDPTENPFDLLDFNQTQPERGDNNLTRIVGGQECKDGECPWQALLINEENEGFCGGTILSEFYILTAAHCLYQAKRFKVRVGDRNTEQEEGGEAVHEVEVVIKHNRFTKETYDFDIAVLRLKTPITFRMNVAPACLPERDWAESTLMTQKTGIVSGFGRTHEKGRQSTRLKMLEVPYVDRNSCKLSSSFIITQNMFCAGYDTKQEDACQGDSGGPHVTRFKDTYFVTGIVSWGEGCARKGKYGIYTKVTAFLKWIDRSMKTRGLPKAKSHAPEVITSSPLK

[2] = molecular target: plasma purified human AT-III (antithrombin III), in complex with full-length unfractionated heparin (UFH); assay: ratio of K0.5 (lower-limit value) of the variant to K0.5 of Catalyst Biosciences WT FIXa, AT-III/UFH inhibition
[3] = molecular target: T1, Antithrombin III (plasma purified human AT-III, Molecular Innovations); assay: same assay; ratio to recombinant wild-type FIXa (Catalyst Biosciences WT)
[4] = molecular target: antithrombin III (plasma purified human AT-III), used as the AT-III/unfractionated heparin complex; assay: K0.5 ratio to Catalyst Biosciences WT FIXa, AT-III/UFH inhibition assay
[5] = molecular target: T1, Antithrombin III (plasma purified human …); assay: AT-III/UFH inhibition: FIXa variant incubated with AT-III dilutions in excess unfractionated heparin, residual cleavage of Mesyl-D-CHG-Gly-Arg-AMC; K0.5 = AT-III concentration for 50% inhibition (IC50)
[6] = molecular target: plasma purified human AT-III (antithrombin III); assay: AT-III/UFH inhibition K0.5, ratio to Catalyst Biosciences WT FIXa
[7] = molecular target: plasma purified human antithrombin III (AT-III), as complex with unfractionated heparin; assay: ratio of K0.5 to Catalyst Biosciences WT FIXa, AT-III/UFH inhibition

Sequence of Factor X, P00742 (P00742 whole entry, looked up): as above
Sequence of Factor X (FX), P00742 (P00742 whole entry, looked up): as above

Row | Protein | K0.5-mut/K0.5-wt [3] | K0.5-mut/K0.5-wt [4] | K0.5 [5] | kcat (Factor X (FX), P00742) | KM (Factor X, P00742) | other results
1 | B1 | – | – | – | – | – | % of WT kcat/KM (against recombinant Catalyst Biosciences WT FIXa) [1]: 135%; kcat/KM (catalytic activity for FX activation; Xase complex with FVIIIa, PC/PS vesicles and Ca2+; fluorogenic Spectrafluor FXa read-out) [1]: 6.2e+07 M⁻¹ s⁻¹
2 | B2 | – | – | – | – | – | K0.5-mut/K0.5-wt [2]: 517
3 | B3 | 78.6 | 78.6 fold | 1520 nM | 0.9 s⁻¹ | 0.0511 µM | % of WT kcat/KM (Factor X (FX), P00742): 42%; kcat/KM (Factor X (FX), P00742): 1.9e+07 M⁻¹ s⁻¹
4 | B4 | 86.8 | 86.8 fold | 1680 nM | – | 0.0592 µM | –
5 | B5 | 42.5 | 42.5 fold | 822 nM | 0.6 s⁻¹ | 0.0399 µM | % of WT kcat/KM (Factor X (FX), P00742): 31%; kcat/KM (Factor X (FX), P00742): 1.4e+07 M⁻¹ s⁻¹
6 | B6 | 24.6 | 24.6 fold | 475 nM | 5 s⁻¹ | 0.042 µM | –
7 | B7 | – | – | – | – | – | K0.5-mut/K0.5-wt [6]: 501; K0.5-mut/K0.5-wt [7]: 501; KM (Factor X (FX), P00742): 0.0839 µM; kcat of FX activation by FIXa (Xase complex with FVIIIa, PC/PS vesicles, Ca2+) (Factor X (FX), P00742): 5.8 s⁻¹; % of WT kcat/KM (Factor X, P00742): 156%; kcat (Factor X, P00742): 5.8 s⁻¹; kcat/KM (Factor X, P00742): 7e+07 M⁻¹ s⁻¹
8 | B8 | – | – | – | – | – | K0.5-mut/K0.5-wt [2]: 517
9 | B9 | – | – | – | – | – | K0.5-mut/K0.5-wt [2]: 517
10 | B10 | 56.8 | 56.8 fold | 1100 nM | 5.6 s⁻¹ | 0.016 µM | –
11 | B11 | – | – | – | – | – | % of WT kcat/KM (against recombinant Catalyst Biosciences WT FIXa) [1]: 593%; kcat/KM (catalytic activity for FX activation; Xase complex with FVIIIa, PC/PS vesicles and Ca2+; fluorogenic Spectrafluor FXa read-out) [1]: 2.7e+08 M⁻¹ s⁻¹
12 | B12 | – | – | – | – | – | K0.5-mut/K0.5-wt [2]: 517
13 | B13 | – | – | – | – | – | K0.5-mut/K0.5-wt [6]: 396; K0.5-mut/K0.5-wt [7]: 396; KM (Factor X (FX), P00742): 0.0235 µM; kcat of FX activation by FIXa (Xase complex with FVIIIa, PC/PS vesicles, Ca2+) (Factor X (FX), P00742): 7 s⁻¹; % of WT kcat/KM (Factor X, P00742): 661%; kcat (Factor X, P00742): 7 s⁻¹; kcat/KM (Factor X, P00742): 3e+08 M⁻¹ s⁻¹
14 | B14 | 327 | 327 fold | 6330 nM | 4.8 s⁻¹ | 0.0189 µM | –
15 | B15 | 374 | 374 fold | 7230 nM | 0.9 s⁻¹ | 0.0475 µM | % of WT kcat/KM (Factor X (FX), P00742): 45%; kcat/KM (Factor X (FX), P00742): 2e+07 M⁻¹ s⁻¹
16 | B16 | 179 | 179 fold | 3460 nM | – | 0.0142 µM | –
17 | B17 | – | – | – | – | – | K0.5-mut/K0.5-wt [2]: 517
18 | B18 | 122 | 122 fold | 2350 nM | – | 0.0455 µM | –
19 | B19 | – | – | – | – | – | % of WT kcat/KM (against recombinant Catalyst Biosciences WT FIXa) [1]: 278%; kcat/KM (catalytic activity for FX activation; Xase complex with FVIIIa, PC/PS vesicles and Ca2+; fluorogenic Spectrafluor FXa read-out) [1]: 1.3e+08 M⁻¹ s⁻¹
20 | B20 | 304 | 304 fold | 5880 nM | 5 s⁻¹ and 5.8 s⁻¹ | 0.0455 µM | catalytic activity (kcat/KM) for activation of FX (Factor X (FX), P00742): displayed some of the greatest increases in catalytic activity
21 | B21 | 19.5 | 19.5 fold | 377 nM | 1.7 s⁻¹ | 0.0455 µM | % of WT kcat/KM (Factor X (FX), P00742): 94%; kcat/KM (Factor X (FX), P00742): 4.2e+07 M⁻¹ s⁻¹
22 | B22 | 21.9 | 21.9 fold | 423 nM | 2.3 s⁻¹ | 0.0385 µM | % of WT kcat/KM (Factor X (FX), P00742): 139%; kcat/KM (Factor X (FX), P00742): 6.2e+07 M⁻¹ s⁻¹
23 | B23 | 366 | 366 fold | 7070 nM | 2.3 s⁻¹ | 0.0883 µM | –
24 | B24 | 60.5 | 60.5 fold | 1170 nM | 2.5 s⁻¹ | 0.0241 µM | % of WT kcat/KM (Factor X (FX), P00742): 234%; kcat/KM (Factor X (FX), P00742): 1e+08 M⁻¹ s⁻¹
25 | B25 | – | – | – | – | – | % of WT kcat/KM (against recombinant Catalyst Biosciences WT FIXa) [1]: 636%; kcat/KM (catalytic activity for FX activation; Xase complex with FVIIIa, PC/PS vesicles and Ca2+; fluorogenic Spectrafluor FXa read-out) [1]: 2.9e+08 M⁻¹ s⁻¹
26 | B26 | – | – | – | – | – | % of WT kcat/KM (against recombinant Catalyst Biosciences WT FIXa) [1]: 153%; kcat/KM (catalytic activity for FX activation; Xase complex with FVIIIa, PC/PS vesicles and Ca2+; fluorogenic Spectrafluor FXa read-out) [1]: 7.1e+07 M⁻¹ s⁻¹
27 | B27 | – | – | – | – | – | K0.5-mut/K0.5-wt [2]: 517
